From patent publication WO2023182244A1 (dated 2023)

T1: HuNoV GII.2 VLP (VP1 of HuNoV GII.2 OSN201926, baculovirus-expressed virus-like particle) (human norovirus GII.2 (OSN201926), …)
T1 construct: VP1 gene cloned from HuNoV GII.2 (OSN201926), expressed by the baculovirus method as a VLP and purified by ultracentrifugation; also called HuNoV GII.2 VP1; HuNoV GII.2 VLP1
T1 chain: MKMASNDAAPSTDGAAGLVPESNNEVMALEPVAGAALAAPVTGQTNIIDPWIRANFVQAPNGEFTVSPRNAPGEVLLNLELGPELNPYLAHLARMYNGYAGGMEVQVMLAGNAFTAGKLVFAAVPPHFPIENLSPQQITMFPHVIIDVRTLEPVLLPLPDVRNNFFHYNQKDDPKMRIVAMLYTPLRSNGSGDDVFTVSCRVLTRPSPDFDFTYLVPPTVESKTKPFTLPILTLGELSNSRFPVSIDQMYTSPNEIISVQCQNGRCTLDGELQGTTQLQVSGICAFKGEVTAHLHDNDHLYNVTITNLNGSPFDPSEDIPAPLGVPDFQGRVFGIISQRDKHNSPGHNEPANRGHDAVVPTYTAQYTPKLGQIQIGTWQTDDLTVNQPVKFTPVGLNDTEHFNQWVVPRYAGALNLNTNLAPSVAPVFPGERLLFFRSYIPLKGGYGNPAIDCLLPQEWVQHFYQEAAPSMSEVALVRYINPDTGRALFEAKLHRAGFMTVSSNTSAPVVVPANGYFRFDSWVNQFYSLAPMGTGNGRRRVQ

B1: YGI-1C5 (VHH)
VHH: EVQLVESGGGLVQTGGSLRLSCAASGLTFSNYAMGWFRQAPGKEREFVATINWSSSRTIYADSVKGRFTISREDAKNTVYLQMNSLKPEDTAVYYCAAEGGAPRWTTGTRRNDYRYWGQGTQVTVSS
notes: Llama VHH expressed in E. coli from pMEK222 (FLAG tag and His tag), purified on Co resin; also called VHH antibody YGI-1C5; not shown: FLAG tag and His tag from vector pMEK222; not clear whe
B2: YGI-1H3 (VHH)
VHH: EVQLVESGGGLVQAGGSLRLSCVVSGRSFSSLAMGWFRQAPGNQREFVAAISWSGGSSYYGDSVKGRFTISRDDAKNTVYLQMDSLKPEDTADYYCATEIVPKYDTAAYYKSQGAFGSWGQGTQVTVSS
notes: Llama VHH expressed in E. coli from pMEK222 (FLAG tag and His tag), purified on Co resin; also called VHH antibody YGI-1H3; not shown: FLAG tag and His tag from vector pMEK222; not clear whe
B3: YGI-1B6 (VHH)
VHH: EVQLVESGGGLVQAGGSLRLSCAASGRTFSNYFMGWFRQAPGKEREFVAAISWSGGSTYYTDSVKGRFTISRDNAKNTMYLQMNTLKPEDTAVYYCAAEKASLSGPSYGLGLDFSRYDYWGQGTQVTVSS
notes: Llama VHH expressed in E. coli from pMEK222 (FLAG tag and His tag), purified on Co resin; also called VHH antibody YGI-1B6; not shown: FLAG tag and His tag from vector pMEK222; not clear whe
B4: YGI-1E10 (VHH)
VHH: EVQLVESGGGLVQAGGSLRLSCTAPKSIASFNSVGWYRQAPGKQRELVATITRSRTTNYADSARGRFTISRDNTKNMMFLQMNSLKPEDTAVYYCNARDIVPVFQTYWGQGTRVTVSS
notes: Llama VHH expressed in E. coli from pMEK222 (FLAG tag and His tag), purified on Co resin; also called VHH antibody YGI-1E10; not shown: FLAG tag and His tag from vector pMEK222; not clear whe
B5: YGI-1F4 (VHH)
VHH: EVQLVESGGGLVQAGGSLRLSCGASGRTFSNYAMGWFRQAPGKEREFVAAINWSGDKTDYADSVKGRFTISRDNVKNFVALQMNSLKPEDTAVYYCATEGGFPQFGSNLKRTSFGLWGQGTQVTVSS
notes: Llama VHH expressed in E. coli from pMEK222 (FLAG tag and His tag), purified on Co resin; also called VHH antibody YGI-1F4; not shown: FLAG tag and His tag from vector pMEK222; not clear whe

Target: T1, HuNoV GII.2 VLP (VP1 of HuNoV GII.2 …)
Test: ELISA of E. coli periplasm fractions on HuNoV GII.2 VLP; clones selected by binding to the antigen

| Binder | binding result |
| --- | --- |
| B1 | binds |
| B2 | binds |
| B3 | binds |
| B4 | binds |
| B5 | binds |
